Measured values reported in US20160031942A1 (LONDON HEALTH SCIENCES CENTRE RESEARCH, published 2016).
Square brackets hold non-standard residues; d marks the D form. Ends that are not written are not given here. * marks the point of attachment. FITC = O=C1OC2(c3ccc(O)cc3Oc3cc(O)ccc32)c2ccc(NC(=S)*)cc21; Ahx = NCCCCCC(=O)O

Experiments:
[1] = molecular target: T1, Recombinant protein RHAMM-CT (truncated RHAMM, carboxy terminus containing the HA binding domain, amino acids … (UniProt Q00547 706-766)); experiment: SPR
T1 chain: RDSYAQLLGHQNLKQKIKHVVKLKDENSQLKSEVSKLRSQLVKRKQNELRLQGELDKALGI

[2] = molecular target: T2, RHAMM (Receptor for Hyaluronic Acid Mediated Motility, CD168) expressed on human cancer cells (human, UniProt O75330 1-724); experiment: cell-based or functional assay
T2 sequence (looked up): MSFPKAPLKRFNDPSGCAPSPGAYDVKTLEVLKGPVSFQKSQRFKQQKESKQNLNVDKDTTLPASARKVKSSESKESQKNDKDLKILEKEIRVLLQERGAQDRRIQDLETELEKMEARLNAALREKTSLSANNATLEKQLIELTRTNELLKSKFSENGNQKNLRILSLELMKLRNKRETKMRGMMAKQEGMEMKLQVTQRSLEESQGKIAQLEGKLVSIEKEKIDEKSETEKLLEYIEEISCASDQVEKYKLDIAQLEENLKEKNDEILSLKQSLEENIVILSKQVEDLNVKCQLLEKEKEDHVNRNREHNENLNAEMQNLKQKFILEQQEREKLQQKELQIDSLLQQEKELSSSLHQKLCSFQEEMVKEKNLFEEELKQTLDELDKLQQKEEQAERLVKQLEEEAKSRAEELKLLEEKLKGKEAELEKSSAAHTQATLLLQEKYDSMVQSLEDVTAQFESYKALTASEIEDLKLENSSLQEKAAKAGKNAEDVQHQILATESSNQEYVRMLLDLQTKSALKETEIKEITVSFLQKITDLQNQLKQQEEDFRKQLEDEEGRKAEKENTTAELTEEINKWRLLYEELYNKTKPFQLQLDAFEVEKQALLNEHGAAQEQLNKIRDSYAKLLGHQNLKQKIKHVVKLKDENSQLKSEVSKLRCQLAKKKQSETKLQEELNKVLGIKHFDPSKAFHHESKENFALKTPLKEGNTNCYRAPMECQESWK

[3] = molecular target: T3, Recombinant protein RHAMM-CT (truncated RHAMM, carboxy terminus containing the HA binding domain, amino acids … (Mus musculus (Mouse), UniProt Q00547 706-766)); experiment: ELISA, fluorescein-labelled peptide on immobilised RHAMM
T3 construct: Expressed in E. coli BL21 from pPAL7-RHAMM as eXact-tagged protein and purified on Profinity eXact resin (fluoride elution); M.W. 7.1 kDa, pI 10.1; also called recombinant RHAMM
T3 sequence: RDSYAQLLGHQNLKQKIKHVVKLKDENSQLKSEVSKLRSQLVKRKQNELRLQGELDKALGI
Protocol: ELISA was carried out to test the ability of FITC-labelled tubulin-derived peptides compete with HA for binding site with RHAMM. Recombinant RHAMM (100 μL, 10 μg/mL in 0.05M PBS, pH=9) was immobilized on 96-well ELISA plates (final concentration of 1 μg/well) and incubated overnight at 4° C. resulting in final amount of protein 1 μg/well. Plates were washed three times with (0.05%) PBS-Tween-20 buffer (200 μL/well), washed with blocking buffer (5% 200 μL/well, PBS-Tween-20 per well), and incubated for 1 hour at room temperature. Following three washes as described above, FITC-labeled tubulin derived peptides (final concentration of 1 μg/mL) and HA (100 μL/well, M.W. 220 kDa, 10 μg/mL in PBS, serial dilutions have been made for HA=1:1, 1:2, 1:4, 1:8, 1:16) were added to plates and incubated overnight at 4° C. Plates were washed as described above, and absorbance was measured at 485/535 nm.
A competitive ELISA was done to determine the selectivity of the peptides to the HA binding domain of RHAMM. In this assay, fluorescein-labelled peptides were used and the effectiveness of unlabelled HA to block the binding of peptides to RHAMM was evaluated. Fluorescein-labelled peptides SEQ ID NOs: 1, 3, 9, 11, 12 and 14, corresponding to peptides 1c, 3c, 9c, 11c, 12c and 14c in FIG. 2B (SEQ ID NOs: 25, 27, 29, 31, 33 and 35) were added to ELISA plates containing immobilized RHAMM, followed by the addition of varying concentration of HA, which is the natural ligand of RHAMM. A decrease in observed fluorescence is seen as HA displaces the fluorescein-labelled peptides if they compete for the same binding site.

[4] = molecular target: T1, Recombinant protein RHAMM-CT (truncated …); experiment: SPR
[5] = molecular target: T1, Recombinant protein RHAMM-CT (truncated …); experiment: SPR; RHAMM 750 nM
[6] = molecular target: T3, Recombinant protein RHAMM-CT (truncated …); experiment: SPR (GWC SPRimager II), thiol-containing peptide immobilised on maleimide chip, RHAMM injected at 500, 750, 1000 nM, 1:1 Langmuir fit
Protocol: After peptide screening, GWC SPRimager®II system was used to determine binding kinetic constants. Thiol-containing peptides at 1 nM concentration in milliQ water were immobilized on a maleimide-functionalized gold-plated chip for 3 hours. Excess peptides were removed by washing with milliQ water. For binding studies, a series of concentrations (500 nM, 750 nM, and 1000 nM) of RHAMM were injected over the immobilized peptides. After a 15 min dissociation phase, the sensor chip surface was regenerated for the next peptide sample injection, via treatment with two 10 min pulse injections of regenerating buffer (2 M NaCl in HBS-EP, pH 7.4) at […]. Baseline returned to the initial value after the regeneration step, confirming the removal of all bound analytes. Data were analyzed and the corresponding dissociation constants (KD) were obtained via non-linear regression fitting to a Langmuir binding model. In all experiments, reference subtraction was performed using data obtained from reference plate (no peptide) and peptide functionalized plate.

[7] = molecular target: T3, Recombinant protein RHAMM-CT (truncated …); experiment: SPR-based screening (FIG. 3B legend)
Protocol: ProteON XPR36 system was used for the selection and ranking of different tubulin derived peptides against RHAMM. For immobilization of RHAMM, the ProteON GLC sensor chip surfaces were activated by amine coupling using 100 mM EDAC and 24 mM sulfo-NHS. RHAMM (30 μg/mL in sodium bicarbonate buffer, pH 9.7) was injected at a flow a rate of 30 μl/min. A buffer sample was injected on a different sensor plate for use as a reference. Ethanolamine HCl (1M, pH 8.5) was then injected to deactivate any remaining surface groups. Peptides (10 μM in PBS-T, 2% DMSO) were injected to a RHAMM functionalized surface at 50 μL/min for 3 minutes followed by a 10 minute dissociation (i.e. injection of PBS-T buffer) period. The surfaces were regenerated using two injections of 30 μL of 1M NaCl prior to the injection of the next peptide. In all experiments, reference subtraction was performed using data obtained from reference plate (No RHAMM) and RHAMM functionalized plate.
After immobilization of RHAMM on the SPR sensor chip, injection of a series of tubulin derived peptides was carried out. Association of the peptides with RHAMM proceeded for 3 minutes and the dissociation in analyte free buffer was carried out for 10 minutes. […] For each peptide injection, control sensograms (no immobilized RHAMM and buffer injection) were subtracted from the test sensograms, and the chip surface was regenerated prior to the next peptide injection in order to remove any remaining bound peptides.

[8] = molecular target: T1, Recombinant protein RHAMM-CT (truncated …); experiment: SPR; average
[9] = molecular target: T1, Recombinant protein RHAMM-CT (truncated …); experiment: SPR; RHAMM 500 nM
[10] = molecular target: T1, Recombinant protein RHAMM-CT (truncated …); experiment: SPR; RHAMM 1000 nM
[11] = molecular target: T3, Recombinant protein RHAMM-CT (truncated …); experiment: solid phase peptide binding assay (ELISA), immobilised RHAMM

## IDSYEDEDEGEE [SEQ ID NO 4 (tubulin-derived peptide containing the DEXEEZ motif)]
[1]
  Kd: < 1000 nM

B1: peptide 9c (SEQ ID NO: 29), fluorescein-conjugated SEQ ID NO: 9 (peptide)
peptide: {FITC}-[Ahx]EEDFGEEAEEEA-NH2
notes: also called fluorescein-conjugated HA mimetic
[2]
  reduction in cellular fluorescence (uptake in MDA-MB-231 cells) when cells are blocked with anti-RHAMM mAb: ~76%
[3]
  binding result: binds

## SNMNDLVSEYQQ [13]
[4]
  Kd: < 1000 nM

## DSADGEDEGEEY [SEQ ID NO 2 (tubulin-derived peptide containing the DEXEEZ motif)]
[1]
  Kd: < 1000 nM

## RPDYISWGTQEQ [15]
[4]
  Kd: < 1000 nM

## Ac-C[Ahx]EEDFGEEAEEEA-NH2 [peptide 9b (SEQ ID NO: 28), SEQ ID NO: 9 with N-acetyl cysteine modified N-terminus]
[5]
  Kd: 33.8 nM
[6]
  Kd: 32 nM

## LEKDYEEVGVDS [6]
[1]
  Kd: 330 nM

B2: peptide 12a (SEQ ID NO: 12), unmodified tubulin-derived peptide (peptide)
peptide: EAFEDEEEEIDG-NH2
notes: Synthetic 12-mer made on Rink amide MBHA resin
[4]
  Kd: 211 nM
[7]
  binding result: binds
[8]
  Kd: 211 nM
[9]
  Kd: 217 nM
[5]
  Kd: 215 nM
[10]
  Kd: 201 nM

## DNPDEMDTSREI [17]
[4]
  Kd: < 1000 nM

B3: peptide 3a (SEQ ID NO: 3), unmodified tubulin-derived peptide, alpha-IIIc CTT (peptide)
peptide: SVEAEAEEGEEY-NH2
notes: as for B2
[1]
  Kd: 331 nM
[7]
  binding result: binds
[8]
  Kd: 331 nM
[9]
  Kd: 310 nM
[5]
  Kd: 325 nM
[10]
  Kd: 358 nM

B4: peptide 11a (SEQ ID NO: 11), unmodified tubulin-derived peptide, beta-IV CTT (peptide)
peptide: GEFEEEAEEEVA-NH2
notes: as for B2
[4]
  Kd: 130 nM
[7]
  binding result: binds
[8]
  Kd: 130 nM
[9]
  Kd: 126 nM
[5]
  Kd: 145 nM
[10]
  Kd: 120 nM

## {FITC-Ahx}-FTEAESNMNDLV-NH2 [peptide 14c (SEQ ID NO: 35), fluorescein-conjugated SEQ ID NO: 14]
[2]
  reduction in cellular fluorescence (uptake in MDA-MB-231 cells) when cells are blocked with anti-RHAMM mAb: ~65%
[3]
  binding result: binds

## Ac-C[Ahx]FTEAESNMNDLV-NH2 [peptide 14b (SEQ ID NO: 34), SEQ ID NO: 14 with N-acetyl cysteine modified N-terminus]
[5]
  Kd: 29 nM
[10]
  Kd: 31.9 nM
[6]
  Kd: 30 nM

B5: peptide 9a (SEQ ID NO: 9), unmodified tubulin-derived peptide, beta-Ia CTT (peptide)
peptide: EEDFGEEAEEEA-NH2
notes: as for B2
[1]
  Kd: 32 nM
[7]
  binding result: binds

## FVHWYVGEGMEE [8]
[1]
  Kd: 176 nM

## GEFEEEEGEDEA [SEQ ID NO 10 (tubulin-derived peptide containing the EEXEDZ motif)]
[4]
  Kd: < 1000 nM

## DSFEEENEGEEF [5]
[1]
  Kd: < 1000 nM

## VQQLIDEYHAAT [16]
[4]
  Kd: < 1000 nM

## {FITC-Ahx}-GEFEEEAEEEVA-NH2 [peptide 11c (SEQ ID NO: 31), fluorescein-conjugated SEQ ID NO: 11]
[11]
  binding result: binds

## Ac-C[Ahx]VEGEGEEEGEEY-NH2 [peptide 1b (SEQ ID NO: 24), SEQ ID NO: 1 with N-acetyl cysteine modified N-terminus]
[6]
  Kd: 24 nM

B6: peptide 1a (SEQ ID NO: 1), unmodified tubulin-derived peptide, alpha-Ia CTT (peptide)
peptide: VEGEGEEEGEEY-NH2
notes: Synthetic 12-mer made on Rink amide MBHA resin; also called ala-CTT
[1]
  Kd: 24 nM
[7]
  binding result: binds

## {FITC-Ahx}-VEGEGEEEGEEY-NH2 [peptide 1c (SEQ ID NO: 25), fluorescein-conjugated SEQ ID NO: 1]
[2]
  reduction in cellular fluorescence (uptake in MDA-MB-231 cells) when cells are blocked with anti-RHAMM mAb: ~85%
[3]
  binding result: binds

## GEFSEAREDMAA [7]
[1]
  Kd: 180 nM

## {FITC-Ahx}-SVEAEAEEGEEY-NH2 [peptide 3c (SEQ ID NO: 27), fluorescein-conjugated SEQ ID NO: 3]
[11]
  binding result: binds
